One experiment addresses T1, C4b-binding protein (human, UniProt P04003 49-597; P20851 18-252).
T1 construct: also called C4BP
T1 sequence (looked up) 1: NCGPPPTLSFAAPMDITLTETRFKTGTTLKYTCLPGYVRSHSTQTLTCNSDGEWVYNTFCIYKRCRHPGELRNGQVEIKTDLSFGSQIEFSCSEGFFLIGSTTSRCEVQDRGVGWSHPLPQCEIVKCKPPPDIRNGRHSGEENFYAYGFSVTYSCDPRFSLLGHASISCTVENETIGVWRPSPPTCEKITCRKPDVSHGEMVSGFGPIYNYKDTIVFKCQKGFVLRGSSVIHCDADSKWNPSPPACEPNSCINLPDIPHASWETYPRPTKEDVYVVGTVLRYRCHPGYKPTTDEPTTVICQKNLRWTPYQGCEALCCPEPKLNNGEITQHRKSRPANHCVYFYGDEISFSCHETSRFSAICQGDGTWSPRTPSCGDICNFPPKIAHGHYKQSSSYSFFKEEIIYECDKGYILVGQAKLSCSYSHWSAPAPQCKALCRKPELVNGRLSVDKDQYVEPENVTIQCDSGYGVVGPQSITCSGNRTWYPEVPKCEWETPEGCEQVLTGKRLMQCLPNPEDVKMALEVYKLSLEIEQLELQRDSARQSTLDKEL
T1 sequence (looked up) 2: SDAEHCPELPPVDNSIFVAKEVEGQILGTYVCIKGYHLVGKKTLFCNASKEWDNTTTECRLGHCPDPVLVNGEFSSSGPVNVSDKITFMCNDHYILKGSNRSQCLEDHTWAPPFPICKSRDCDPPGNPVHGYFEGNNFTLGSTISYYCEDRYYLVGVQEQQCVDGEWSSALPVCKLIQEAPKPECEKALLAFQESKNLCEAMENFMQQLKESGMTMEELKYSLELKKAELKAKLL
Nature of the experiment: bispecific ELISA and complement activation assay on biotinylated BSA-DNP, C4BP detected.

The target in experiment [1] is T2, Complement Factor H protein (human, UniProt P08603 19-1231).
T2 construct: Plasma protein, bought purified or present in normal human serum; also called FH; CFH
T2 sequence (P08603 19-1231 limits assumed): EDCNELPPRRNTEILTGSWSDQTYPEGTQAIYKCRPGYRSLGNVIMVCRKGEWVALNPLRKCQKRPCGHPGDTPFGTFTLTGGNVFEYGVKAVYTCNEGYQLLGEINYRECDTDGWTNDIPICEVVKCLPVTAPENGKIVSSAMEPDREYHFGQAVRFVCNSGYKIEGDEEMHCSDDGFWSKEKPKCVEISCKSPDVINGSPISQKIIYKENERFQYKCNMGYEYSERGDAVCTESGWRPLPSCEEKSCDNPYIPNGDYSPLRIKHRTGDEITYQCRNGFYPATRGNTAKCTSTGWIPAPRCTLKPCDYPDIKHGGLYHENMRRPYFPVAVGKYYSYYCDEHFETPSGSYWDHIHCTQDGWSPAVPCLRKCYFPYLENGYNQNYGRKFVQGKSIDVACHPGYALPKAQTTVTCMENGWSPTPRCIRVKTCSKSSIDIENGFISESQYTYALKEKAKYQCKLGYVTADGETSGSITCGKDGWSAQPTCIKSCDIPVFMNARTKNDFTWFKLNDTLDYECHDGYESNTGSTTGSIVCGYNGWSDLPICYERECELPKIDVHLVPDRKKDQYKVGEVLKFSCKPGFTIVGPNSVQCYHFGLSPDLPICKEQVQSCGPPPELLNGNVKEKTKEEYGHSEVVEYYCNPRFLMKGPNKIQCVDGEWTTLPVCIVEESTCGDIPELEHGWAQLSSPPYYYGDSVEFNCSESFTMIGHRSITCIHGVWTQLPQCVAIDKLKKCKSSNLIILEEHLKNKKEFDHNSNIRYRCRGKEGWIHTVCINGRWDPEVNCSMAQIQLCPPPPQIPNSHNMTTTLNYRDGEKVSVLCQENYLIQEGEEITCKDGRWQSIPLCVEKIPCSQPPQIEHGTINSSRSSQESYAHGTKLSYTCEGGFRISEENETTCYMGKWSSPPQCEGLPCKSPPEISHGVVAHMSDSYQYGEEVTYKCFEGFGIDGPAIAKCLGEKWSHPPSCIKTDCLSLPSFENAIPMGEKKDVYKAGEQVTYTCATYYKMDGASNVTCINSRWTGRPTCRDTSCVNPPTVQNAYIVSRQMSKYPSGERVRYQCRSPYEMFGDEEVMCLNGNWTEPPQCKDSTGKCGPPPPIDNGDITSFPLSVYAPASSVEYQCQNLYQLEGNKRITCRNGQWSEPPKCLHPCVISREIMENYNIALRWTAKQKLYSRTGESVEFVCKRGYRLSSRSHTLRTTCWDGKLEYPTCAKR
Nature of the experiment: bispecific ELISA. As to the method: BsAbs were tested for binding to both antigens in a bispecific ELISA. MaxiSorp plates (Thermo Scientific, Nunc, 430341) were coated with 50 μL/well BSA-DNP (10 μg/mL, Biosearch Technologies, D-5050-10, conjugation ration 13) in coating buffer (0.1 M Na₂CO₃/NaHCO₃PH 9.6) for 1 hour at 37° C. After every incubation, plates were washed three times with PBS/0.05% Tween 20. Plates were blocked with 100 μL/well PBS/1% BSA for 1 hour at 37° C. After washing, plates were incubated with 50 μL/well (bs) Abs diluted in PBS/0.05% Tween 20/1% BSA (PTB buffer) for 1 hour at 37° C. Next, 1 μg/mL FH (CompTech, A137) or C4BP (CompTech, A109) diluted in PTB buffer was added. FH was detected using goat anti-human FH (Quidel, A312) and HRP-labeled rabbit anti-goat Ig (Dako, P0449), and C4BP was detected using rabbit anti-human C4BP (kind gift from Anna M. Blom, Malmö, Sweden) and HRP-labeled goat anti-rabbit Ig (Dako, P0448), all diluted in PTB buffer. Plates were developed by incubating with 50 μL/well ABTS (Merck, A1888-5G) containing 1:2000 diluted H₂O₂ (Merck, 1072090250), and read at 415 nm using a microplate reader (BIO-RAD iMark). It was confirmed by ELISA that the bsAbs can bind to a specific target (e.g., DNP as a model antigen) as well as FH or C4BP, whereas the parental monospecific antibodies cannot (FIG. 1A).
For orientation: In an ELISA, binding on a coated surface is turned into a signal by an enzyme label.

The target in experiment [2] is T2, Complement Factor H protein. Put plainly: flow cytometry, FH detected on Ramos cells treated with bsAb and normal human serum. Here is the method: Ramos cells (originally from ATCC) were plated at 100,000 cells/well (V-bottom microplate, Greiner Bio-One, 651101). Cells were incubated with 100 μL/well samples containing 0.3 μg/mL anti-CD20 wild-type with or without 20 μg/mL bsAbs (anti-FH x anti-HLA I and controls) with or without 10 μg/mL FH for 30 minutes. After every incubation, cells were washed with 150 μL/well PBS/1% FCS. Cells were incubated with 100 μL/well 10% NHS in RPMI (for FH detection in the presence of 50 μg/mL eculizumab) for 45 minutes at 37° C. Cell viability was measured by adding 100 μL/well 7-AAD (BD Pharmingen, 559925) 1:200 diluted in PBS/1% FCS. FH was detected using mouse anti-human FH (1:100, OX-23, generated in-house) and goat anti-mouse IgG AF488 (1:50, Life Technologies, A11001). Cells were measured using a FACSCanto flow cytometer (BD Biosciences).
In general terms: A flow cytometer gives signals particle by particle.

This note sets out measurements from patent publication US20260258117A1 (ACADEMISCH ZIEKENHUIS LEIDEN H O D N LUMC, published 2026).

B1: Anti-C4BP F405L LALAPG, Anti-biotin K409R LALAPG (bispecific antibody, human IgG1, kappa, L234A L235A)
heavy 1: EVQLVESGGGLVKPGGSLKLSCAVSGFIFSDYYMYWVRQTPEKRLEWVATISDGGVYTYYPDSMKGRFTISRDNAKNNLYLQMSSLKSEDTAMYYCVRGDYYGNSLDYWGQGTSVTVSSASTKGPSVFPLAPSSKSTSGGTAALGCLVKDYFPEPVTVSWNSGALTSGVHTFPAVLQSSGLYSLSSVVTVPSSSLGTQTYICNVNHKPSNTKVDKRVEPKSCDKTHTCPPCPAPEAAGGPSVFLFPPKPKDTLMISRTPEVTCVVVDVSHEDPEVKFNWYVDGVEVHNAKTKPREEQYNSTYRVVSVLTVLHQDWLNGKEYKCKVSNKALGAPIEKTISKAKGQPREPQVYTLPPSREEMTKNQVSLTCLVKGFYPSDIAVEWESNGQPENNYKTTPPVLDSDGSFLLYSKLTVDKSRWQQGNVFSCSVMHEALHNHYTQKSLSLSPGK
light 1: DVVMTQTPLTLSITIGQPASISCKSSQSLLDGDGKTYLNWLLQRPGQSPKRLIYLVSKLDSGVPDRFTGSGSGTDFTLKISRVEAEDLGVYYCCQGTHFPWTFGRGTKLEIKRTVAAPSVFIFPPSDEQLKSGTASVVCLLNNFYPREAKVQWKVDNALQSGNSQESVTEQDSKDSTYSLSSTLTLSKADYEKHKVYACEVTHQGLSSPVTKSFNRGEC
heavy 2: QVKLQESGPGLVAPSQSLSITCTVSGFSLTAYGVDWVRQPPGKGLEWLGVIWGGGRTNYNSGLMSRLSIRKDNSKSQVFLTMNSLQTDDTAKYYCVKHTNWDGGFAYWGQGTTVTVSSASTKGPSVFPLAPSSKSTSGGTAALGCLVKDYFPEPVTVSWNSGALTSGVHTFPAVLQSSGLYSLSSVVTVPSSSLGTQTYICNVNHKPSNTKVDKRVEPKSCDKTHTCPPCPAPEAAGGPSVFLFPPKPKDTLMISRTPEVTCVVVDVSHEDPEVKFNWYVDGVEVHNAKTKPREEQYNSTYRVVSVLTVLHQDWLNGKEYKCKVSNKALGAPIEKTISKAKGQPREPQVYTLPPSREEMTKNQVSLTCLVKGFYPSDIAVEWESNGQPENNYKTTPPVLDSDGSFFLYSRLTVDKSRWQQGNVFSCSVMHEALHNHYTQKSLSLSPGK
light 2: DVVMTQSPLSLPVSLGDQASISCRSGQGLVYSNGDTYLHWYLQKPGQSPKLLIYKVSNRFSGVPDRFSGSGSGTDFTLKISRVEAEDLGVYFCSQSTHFPFTFGSGTKLEIKRTVAAPSVFIFPPSDEQLKSGTASVVCLLNNFYPREAKVQWKVDNALQSGNSQESVTEQDSKDSTYSLSSTLTLSKADYEKHKVYACEVTHQGLSSPVTKSFNRGEC
notes: Made by controlled Fab-arm exchange; also called anti-C4BP x anti-biotin
For the molecule B1, in the experiment with C4b-binding protein, the binding result is recorded as “binds”.

B2: Anti-FH F405L LALAPG, Anti-DNP K409R LALAPG (bispecific antibody, human IgG1, kappa, L234A L235A)
heavy 1: EVQLQQSGPELVKPGASVKISCKASGYSFTGYFIHWVKQSHVKSLEWFGRINPYNGATDYNQNFKDKAILTIDESSSTAYMEIHSLTSDDSAVYYCARGLFLDYWGQGTTLTVSSASTKGPSVFPLAPSSKSTSGGTAALGCLVKDYFPEPVTVSWNSGALTSGVHTFPAVLQSSGLYSLSSVVTVPSSSLGTQTYICNVNHKPSNTKVDKRVEPKSCDKTHTCPPCPAPEAAGGPSVFLFPPKPKDTLMISRTPEVTCVVVDVSHEDPEVKFNWYVDGVEVHNAKTKPREEQYNSTYRVVSVLTVLHQDWLNGKEYKCKVSNKALGAPIEKTISKAKGQPREPQVYTLPPSREEMTKNQVSLTCLVKGFYPSDIAVEWESNGQPENNYKTTPPVLDSDGSFLLYSKLTVDKSRWQQGNVFSCSVMHEALHNHYTQKSLSLSPGK
light 1: DILMTQSPSSMSVSLGDTVSITCHASQGITSNIGWLQQKPGKSFKGLIYHGTNLEDGVPSRFSGSGSGADYSLTISSLESEDFADYYCVQYAQFPWTFGGGTKLEIKRTVAAPSVFIFPPSDEQLKSGTASVVCLLNNFYPREAKVQWKVDNALQSGNSQESVTEQDSKDSTYSLSSTLTLSKADYEKHKVYACEVTHQGLSSPVTKSFNRGEC
heavy 2: DVRLQESGPGLVKPSQSLSLTCSVTGYSITNSYYWNWIRQFPGNKLEWMVYIGYDGSNNYNPSLKNRISITRDTSKNQFFLKLNSVTTEDTATYYCARATYYGNYRGFAYWGQGTLVTVSAASTKGPSVFPLAPSSKSTSGGTAALGCLVKDYFPEPVTVSWNSGALTSGVHTFPAVLQSSGLYSLSSVVTVPSSSLGTQTYICNVNHKPSNTKVDKRVEPKSCDKTHTCPPCPAPEAAGGPSVFLFPPKPKDTLMISRTPEVTCVVVDVSHEDPEVKFNWYVDGVEVHNAKTKPREEQYNSTYRVVSVLTVLHQDWLNGKEYKCKVSNKALGAPIEKTISKAKGQPREPQVYTLPPSREEMTKNQVSLTCLVKGFYPSDIAVEWESNGQPENNYKTTPPVLDSDGSFFLYSRLTVDKSRWQQGNVFSCSVMHEALHNHYTQKSLSLSPGK
light 2: DIRMTQTTSSLSASLGDRVTISCRASQDISNYLNWYQQKPDGTVKLLIYYTSRLHSGVPSRFSGSGSGTDYSLTISNLEQEDIATYFCQQGNTLPWTFGGGTKLEIKRTVAAPSVFIFPPSDEQLKSGTASVVCLLNNFYPREAKVQWKVDNALQSGNSQESVTEQDSKDSTYSLSSTLTLSKADYEKHKVYACEVTHQGLSSPVTKSFNRGEC
notes: Made by controlled Fab-arm exchange of the two parental IgG1 kappa antibodies; also called anti-FH x anti-DNP
Consider B2, for which, in experiment [1], the binding result is reported as “binds”.

B3: Anti-FH F405L LALAPG, Anti-HLA I K409R LALAPG (bispecific antibody, human IgG1, kappa, L234A L235A)
heavy 1: B2 heavy 1
light 1: B2 light 1
heavy 2: QVQLKQSGPGLVQPSQSLSLTCTVSGFSLTSYGVHWVRQPPGKGLEWLGVIWSGGSTDYNAAFISRLSIRKDNSKSQVFFKMNSLQADDTAIYYCARTFTTSTSAWFAYWGQGTLVTVSAASTKGPSVFPLAPSSKSTSGGTAALGCLVKDYFPEPVTVSWNSGALTSGVHTFPAVLQSSGLYSLSSVVTVPSSSLGTQTYICNVNHKPSNTKVDKRVEPKSCDKTHTCPPCPAPEAAGGPSVFLFPPKPKDTLMISRTPEVTCVVVDVSHEDPEVKFNWYVDGVEVHNAKTKPREEQYNSTYRVVSVLTVLHQDWLNGKEYKCKVSNKALGAPIEKTISKAKGQPREPQVYTLPPSREEMTKNQVSLTCLVKGFYPSDIAVEWESNGQPENNYKTTPPVLDSDGSFFLYSRLTVDKSRWQQGNVFSCSVMHEALHNHYTQKSLSLSPGK
light 2: SIVMTQTPKFLLVSAGDRVTITCKASQSVSNDVAWYQQKPGQSPKLLIYYASNRYTGVPDRFTGSGYGTDFTFTISTVQAEDLAVYFCQQDYSSPPWTFGGGTKLEIRRTVAAPSVFIFPPSDEQLKSGTASVVCLLNNFYPREAKVQWKVDNALQSGNSQESVTEQDSKDSTYSLSSTLTLSKADYEKHKVYACEVTHQGLSSPVTKSFNRGEC
notes: Made by controlled Fab-arm exchange; also called anti-FH x anti-HLA I
On to B3, for which the binding result in experiment [2] is “binds”.
